The text below walks through data of patent publication US20220177547A1 (KYUNGPOOK NATIONAL UNIVERSITY INDUSTRY ACADEMIC COOPERATION …, published 2022).

The target of test [1] is T1, Interleukin 4 receptor (IL4R) protein (UniProt P24394 26-232, limits assumed).
T1 construct: Purified protein amine-coupled (NHS-EDC) to the SPR chip; The construct is not described
T1 sequence (looked up): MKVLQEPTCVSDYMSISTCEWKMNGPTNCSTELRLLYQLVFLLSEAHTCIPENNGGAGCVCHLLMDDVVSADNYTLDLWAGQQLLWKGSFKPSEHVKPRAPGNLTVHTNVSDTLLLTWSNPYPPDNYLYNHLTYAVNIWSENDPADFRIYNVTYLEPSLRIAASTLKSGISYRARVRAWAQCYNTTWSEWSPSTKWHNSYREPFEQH
Kind of test: SPR, IL4R coupled to gold sensor chip, TRAIL-ATNC^IL4rP flowed 41.67 nM to 0.65 nM. As to the method: Interleukin 4 receptor (IL4R) protein was coupled to the surface of a gold sensor chip for surface resonance plasma (SPR) activated with NHS-EDC, and TRAIL-ATNC^IL4rP dissolved in TBS was flowed from 41.67 nM to 0.65 nM in half on the IL4R-coupled gold sensor chip to analyze binding kinetics. The right channel, which was not coated with IL4R, was used as a reference.
For orientation: SPR reads the build-up and loss of mass on a sensor chip optically.

Test [2] addresses T2, TRAIL receptor protein Dr5 (UniProt O14763 56-182, limits assumed).
T2 construct: Purified protein amine-coupled (NHS-EDC) to the SPR chip; The construct is not described
Put plainly: SPR, Dr5 coupled to gold sensor chip, TRAIL-ATNC flowed 8.33 nM to 0.52 nM. As to the method:
(§1) The TRAIL receptor protein Dr5 was coupled to a surface of a gold sensor chip by flowing it on the surface of the gold sensor chip for surface resonance plasma (SPR) activated with NHS-EDC, and blocked with ethanolamine. The binding kinetics were analyzed by flowing TRAIL-ATNC dissolved in TBS from 8.33 nM to 0.52 nM by half, and TRAIL from 400 nM to 25 nM by half on the TRAIL receptor-coupled gold sensor chip, respectively. The right channel, which was not coated with Dr5, was used as a control (or reference).

Test [3] concerns the target T2, TRAIL receptor protein Dr5. Kind of test: SPR, Dr5 coupled to gold sensor chip. As to the method:
as §1
It was determined that TRAIL-ATNC bound to the TRAIL receptor faster than TRAIL, and formed a stable complex in which dissociation was delayed after binding.

B1: TRAIL-ATNC^IL4rP (other)
chain: MGSSHHHHHHSSGLVPRGSQHMVRERGPQRVAAHITGTRGRSNTLSSPNSKNEKALGRKINSWESSRSGHSFLSNLHLRNGELVIHEKGFYYIYSQTYFRFQEEIKENTKNDKQMVQYIYKYTSYPDPILLMKSARNSCWSKDAEYGLYSIYQGGIFELKENDRIFVSVTNEHLIDMDHEASFFGAFLVGGSGGGSGEFEALQGQVQHLQAAFSQYKKVELFPVDGGGGAEAAAKEAAAKTSDSEAAINRQINLELYASYVYLSMSYYFDRDDVALKNFAKYFLHQSHEEREHAEKLMKLQNQRGGRIFLQDIKKPDCDDWESGLNAMECALHLEKNVNQSLLELHKLATDKNDPHLCDFIETHYLNEQVKAIKELGDHVTNLRKMGAKLGGGSGGPLGLAGGGGSGCRKRLDRNC
notes: Ferritin nanocage of 24 fusion polypeptides; It was expressed from pET-28a and purified on Ni-NTA; also called TRAIL trimer fusion protein expressed on the cancer-targeting ferritin nanocage
Take B1: the Kd in test [1] came out at 37.7 nM.

B2: TRAIL-ATNC (Active Trimer Nanocage) (other)
chain: MGSSHHHHHHSSGLVPRGSQHMVRERGPQRVAAHITGTRGRSNTLSSPNSKNEKALGRKINSWESSRSGHSFLSNLHLRNGELVIHEKGFYYIYSQTYFRFQEEIKENTKNDKQMVQYIYKYTSYPDPILLMKSARNSCWSKDAEYGLYSIYQGGIFELKENDRIFVSVTNEHLIDMDHEASFFGAFLVGGSGGGSGEFEALQGQVQHLQAAFSQYKKVELFPVDGGGGAEAAAKEAAAKTSDSEAAINRQINLELYASYVYLSMSYYFDRDDVALKNFAKYFLHQSHEEREHAEKLMKLQNQRGGRIFLQDIKKPDCDDWESGLNAMECALHLEKNVNQSLLELHKLATDKNDPHLCDFIETHYLNEQVKAIKELGDHVTNLRKMGAKL
notes: It was expressed from pET-28a and purified on Ni-NTA; also called TRAIL-attached nanocage
Consider B2, for which, in test [2], binding was put at a Kd of 0.411 nM, the koff came to 0.000217 s⁻¹ and the on-rate constant (kon) is 529000 M⁻¹ s⁻¹. Also, in test [3], the “fold higher kon than TRAIL alone” value is ~10 fold, the “fold lower KD than TRAIL” value was ~100 fold and the “fold lower koff than TRAIL alone” value was ~10 fold.

The Kd is the concentration at which binding is half-saturated. Read a high Kd as lower affinity. One may read the koff as a measure of how fast the partners let go of each other. Broadly, the kon is a measure of how fast the partners come together. The low end stands for slower complex formation, the high end for faster complex formation.
